Among the data in EP4722253A1 (dated 2026) are Kd values, retold here.

Assay [1] deals with T1, C1q, complement component 1q (UniProt P02745 23-245; P02746 28-253; P02747 29-245).
T1 construct: also called Clq
Kind of assay: BLI (Octet HTX), antibody on FAB2G biosensor, C1q in solution.

The target of another assay is T2, FcγRIIa (UniProt P12318 34-217).
T2 sequence (looked up): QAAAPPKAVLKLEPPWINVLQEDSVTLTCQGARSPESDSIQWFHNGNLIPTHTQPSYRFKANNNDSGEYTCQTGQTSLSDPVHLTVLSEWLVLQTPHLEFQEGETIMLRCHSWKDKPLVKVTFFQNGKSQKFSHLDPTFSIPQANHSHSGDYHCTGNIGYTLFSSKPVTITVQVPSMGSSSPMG
Kind of assay: BLI (Octet HTX), antibody on FAB2G biosensor, FcγRIIa in solution.

A further assay has as its target T3, FcγRIIIa (UniProt P08637 17-208).
T3 construct: also called FcyRIIIa
In words: BLI (Octet HTX), antibody on FAB2G biosensor, FcγRIIIa in solution.

Another assay addresses T4, FcRn (UniProt P55899 24-297).
T4 construct: also called neonatal Fc receptor
In words: BLI (Octet HTX), antibody on FAB2G biosensor, FcRn in solution, pH 6.0.

Residue numbers refer to the chain shown, from its start.

T3 sequence (P08637 17-208 limits assumed): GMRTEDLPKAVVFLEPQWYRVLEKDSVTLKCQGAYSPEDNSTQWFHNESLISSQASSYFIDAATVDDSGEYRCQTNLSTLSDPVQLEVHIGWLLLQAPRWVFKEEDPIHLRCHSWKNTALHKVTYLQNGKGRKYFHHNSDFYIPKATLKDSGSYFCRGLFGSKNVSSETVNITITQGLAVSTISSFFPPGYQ
T4 sequence (P55899 24-297 limits assumed, form in doubt): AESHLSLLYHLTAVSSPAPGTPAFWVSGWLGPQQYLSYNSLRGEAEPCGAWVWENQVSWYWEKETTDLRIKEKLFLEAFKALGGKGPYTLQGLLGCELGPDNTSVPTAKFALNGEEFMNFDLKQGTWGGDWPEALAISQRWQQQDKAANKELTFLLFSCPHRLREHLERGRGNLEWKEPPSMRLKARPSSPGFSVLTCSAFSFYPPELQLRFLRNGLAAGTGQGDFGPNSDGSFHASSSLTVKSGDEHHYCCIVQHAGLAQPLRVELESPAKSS
T1 sequence (P02745 23-245 limits assumed, chain 1 of 3): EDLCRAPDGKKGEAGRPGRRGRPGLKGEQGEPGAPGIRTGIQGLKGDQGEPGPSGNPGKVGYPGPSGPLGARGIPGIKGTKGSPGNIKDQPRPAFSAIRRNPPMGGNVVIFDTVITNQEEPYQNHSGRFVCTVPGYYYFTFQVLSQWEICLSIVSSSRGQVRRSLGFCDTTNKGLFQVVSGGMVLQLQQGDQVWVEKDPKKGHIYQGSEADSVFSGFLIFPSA
T1 sequence (P02746 28-253 limits assumed, chain 2 of 3): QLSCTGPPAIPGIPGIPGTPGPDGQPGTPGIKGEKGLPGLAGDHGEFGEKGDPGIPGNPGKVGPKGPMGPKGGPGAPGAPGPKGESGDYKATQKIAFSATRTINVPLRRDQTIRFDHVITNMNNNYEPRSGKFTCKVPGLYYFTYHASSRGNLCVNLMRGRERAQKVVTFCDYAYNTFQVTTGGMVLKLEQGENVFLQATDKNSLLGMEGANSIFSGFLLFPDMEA
T1 sequence (P02747 29-245 limits assumed, chain 3 of 3): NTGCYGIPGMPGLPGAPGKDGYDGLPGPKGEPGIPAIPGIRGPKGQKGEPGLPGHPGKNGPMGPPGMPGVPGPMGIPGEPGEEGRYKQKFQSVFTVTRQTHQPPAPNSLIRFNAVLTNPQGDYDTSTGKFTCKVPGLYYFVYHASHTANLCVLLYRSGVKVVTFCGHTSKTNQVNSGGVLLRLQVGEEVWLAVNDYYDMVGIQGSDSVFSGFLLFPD

B1: Q-SBL-101 (bispecific antibody, human IgG1, kappa)
heavy 1: not shown
heavy 2: EVQLVESGGGLVQPGGSLRLSCAASGYTFTNYGMNWVRQAPGKGLEWVGWINTYTGEPTYAADFKRRFTFSLDTSKSTAYLQMNSLRAEDTAVYYCAKYPHYYGSSHWYFDVWGQGTLVTVSSASTKGPSVFPLAPSSKSTSGGTAALGCLVKDYFPEPVTVSWNSGALTSGVHTFPAVLQSSGLYSLSSVVTVPSSSLGTQTYICNVNHKPSNTKVDKKVEPKSCDKTHTCPPCPAPELLGGPSVFLFPPKPKDTLMISRTPEVTCVVVDVSHEDPEVKFNWYVDGVEVHNAKTKPREEQYNSTYRVVSVLTVLHQDWLNGKEYKCKVSNKALPAPIEKTISKAKGQPREPQVCTLPPSRREMTKNQVSLWCLVKGFYPSDIAVEWESNGQPENNYKTTPPVLDSDGSFFLYSKLTVDKSRWQQGNVFSCSVMHEALHNHYTQKSLSLSPGK
light 1: not shown
light 2: not shown
notes: copies: 1 + 1 + 1 + 1
For B1, the Kd was 36 nM in assay [1], 2460 nM with FcγRIIa, 500 nM in the assay with FcγRIIIa and 730 nM with FcRn.

B2: Q-SBL-136 (bispecific antibody, human IgG1, kappa)
heavy 1: not shown
heavy 2: B1 heavy 2 with R362E, K415T
light 1: not shown
light 2: not shown
notes: copies: 1 + 1 + 1 + 1
Consider B2, for which the Kd was 1970 nM with FcγRIIa, 230 nM with FcγRIIIa and 620 nM in the assay with FcRn.

B3: Q-SBL-117 (bispecific antibody, human IgG1, kappa)
heavy 1: not shown
heavy 2: B1 heavy 2 with R362K
light 1: not shown
light 2: not shown
notes: copies: 1 + 1 + 1 + 1
For the molecule B3, the Kd in assay [1] stood at 40 nM; with FcγRIIa, 2550 nM; in the assay with FcγRIIIa it was 360 nM.

B4: Q-SBL-130 (bispecific antibody, human IgG1, kappa)
heavy 1: not shown
heavy 2: B1 heavy 2 with R362E, D405F
light 1: not shown
light 2: not shown
notes: copies: 1 + 1 + 1 + 1
As for B4, the Kd came to 17 nM in assay [1], 1720 nM in the assay with FcγRIIa, 290 nM with FcγRIIIa and 740 nM with FcRn.

B5: Q-SBL-127 (bispecific antibody, human IgG1, kappa)
heavy 1: not shown
heavy 2: B1 heavy 2 with R362E, D405F
light 1: not shown
light 2: not shown
notes: copies: 1 + 1 + 1 + 1
For the molecule B5, the Kd worked out at 18 nM in assay [1], 1630 nM with FcγRIIa, 230 nM in the assay with FcγRIIIa and 750 nM with FcRn.

B6: Q-SBL-102 (bispecific antibody, human IgG1, kappa)
heavy 1: not shown
heavy 2: B1 heavy 2 with R362E, D405H
light 1: not shown
light 2: not shown
notes: copies: 1 + 1 + 1 + 1
For the molecule B6, the Kd in assay [1] came to 40 nM; in the assay with FcγRIIa, 1700 nM; with FcγRIIIa, 420 nM; in the assay with FcRn, 710 nM.

B7: Q-SBL-106 (bispecific antibody, human IgG1, kappa)
heavy 1: not shown
heavy 2: B1 heavy 2 with R362E, E363R, D405H
light 1: not shown
light 2: not shown
notes: copies: 1 + 1 + 1 + 1
Turning to B7, the Kd in the assay with FcRn amounted to 680 nM.

B8: Q-SBL-109 (bispecific antibody, human IgG1, kappa)
heavy 1: not shown
heavy 2: B1 heavy 2
light 1: not shown
light 2: not shown
notes: copies: 1 + 1 + 1 + 1
As for B8, the Kd was 28 nM in assay [1], 2200 nM with FcγRIIa, 340 nM with FcγRIIIa and 640 nM with FcRn.

B9: Q-SBL-105 (bispecific antibody, human IgG1, kappa)
heavy 1: not shown
heavy 2: B1 heavy 2 with E363R
light 1: not shown
light 2: not shown
notes: copies: 1 + 1 + 1 + 1
For B9, the Kd with FcγRIIa came to 1910 nM; with FcγRIIIa it was 430 nM; in the assay with FcRn, 710 nM.

B10: Q-SBL-115 (bispecific antibody, human IgG1, kappa)
heavy 1: not shown
heavy 2: B1 heavy 2 with R362E, E363R
light 1: not shown
light 2: not shown
notes: copies: 1 + 1 + 1 + 1
For the molecule B10, the dissociation constant Kd turned out to be 18 nM in assay [1], 1970 nM with FcγRIIa, 290 nM with FcγRIIIa and 690 nM with FcRn.

B11: Q-SBL-104 (bispecific antibody, human IgG1, kappa)
heavy 1: not shown
heavy 2: B1 heavy 2 with D405H
light 1: not shown
light 2: not shown
notes: copies: 1 + 1 + 1 + 1
Consider B11, for which the Kd came to 1870 nM in the assay with FcγRIIa and 680 nM with FcRn.

B12: Q-SBL-114 (bispecific antibody, human IgG1, kappa)
heavy 1: not shown
heavy 2: B1 heavy 2 with R362E, D405H
light 1: not shown
light 2: not shown
notes: copies: 1 + 1 + 1 + 1
With B12, the Kd was 18 nM in assay [1], 1860 nM in the assay with FcγRIIa and 230 nM with FcγRIIIa.

B13: Q-SBL-111 (bispecific antibody, human IgG1, kappa)
heavy 1: not shown
heavy 2: B1 heavy 2
light 1: not shown
light 2: not shown
notes: copies: 1 + 1 + 1 + 1
As for B13, the Kd in assay [1] amounted to 30 nM; with FcγRIIa, 2040 nM; with FcγRIIIa, 490 nM; with FcRn, 690 nM.

B14: Q-SBL-116 (bispecific antibody, human IgG1, kappa)
heavy 1: not shown
heavy 2: B1 heavy 2 with R362K
light 1: not shown
light 2: not shown
notes: copies: 1 + 1 + 1 + 1
As for B14, the Kd in assay [1] was determined as 33 nM; with FcγRIIa, 2340 nM; in the assay with FcγRIIIa, 370 nM; with FcRn it was 650 nM.

B15: Q-SBL-103 (bispecific antibody, human IgG1, kappa)
heavy 1: not shown
heavy 2: B1 heavy 2 with R362E, E363R
light 1: not shown
light 2: not shown
notes: copies: 1 + 1 + 1 + 1
With B15, the Kd in assay [1] is 40 nM; in the assay with FcγRIIa it was 1130 nM; with FcγRIIIa, 220 nM.

B16: Q-SBL-135 (bispecific antibody, human IgG1, kappa)
heavy 1: not shown
heavy 2: B1 heavy 2 with R362E, K415V
light 1: not shown
light 2: not shown
notes: copies: 1 + 1 + 1 + 1
For B16, the Kd in the assay with FcγRIIa stood at 1380 nM; with FcγRIIIa, 300 nM; in the assay with FcRn, 650 nM.

B17: Q-SBL-137 (bispecific antibody, human IgG1, kappa)
heavy 1: not shown
heavy 2: B1 heavy 2 with R362E, K415S
light 1: not shown
light 2: not shown
notes: copies: 1 + 1 + 1 + 1
As for B17, the Kd in assay [1] worked out at 24 nM; in the assay with FcγRIIa, 2120 nM; in the assay with FcγRIIIa, 380 nM; with FcRn, 580 nM.

B18: Q-SBL-131 (bispecific antibody, human IgG1, kappa)
heavy 1: not shown
heavy 2: B1 heavy 2 with R362E, D405F
light 1: not shown
light 2: not shown
notes: copies: 1 + 1 + 1 + 1
B18: the Kd in assay [1] came out at 16 nM; in the assay with FcγRIIa, 1620 nM; with FcγRIIIa, 330 nM; with FcRn, 670 nM.
